Values quoted from earlier work as cited in US6664231B1, “Anti-fungal peptides” (priority 1993, dated 2003).

What was measured:
[1] = system: human, rabbit and sheep red blood cells and several human tumor cell lines; conditions: cited from earlier work
[2] = system: gram-positive organisms Staphylococcus aureus, Staphylococcus epidermidis, Streptococcus faecalis, Bacillus subtilis, Micrococcus lysodeikricus, Listeria …; conditions: 10^−6 M or 160 μg/ml, pH 7.0 or 5.5; cited from earlier work
[3] = system: Candida albicans and Candida parapsilosis; conditions: 10^−6 M, pH 7.0 or 5.5; cited from earlier work
gram-negative bacteria = conditions: as low as; cited from earlier work

B1: BPI: bactericidal/permeability-increasing protein isolated from the granules of mammalian polymorphonuclear leukocytes (protein, UniProt P17213 32-487, looked up)
Bactericidal …: VNPGVVVRISQKGLDYASQQGTAALQKELKRIKIPDYSDSFKIKHLGKGHYSFYSMDIREFQLPSSQISMVPNVGLKFSISNANIKISGKWKAQKRFLKMSGNFDLSIEGMSISADLKLGSNPTSGKPTITCSSCSSHINSVHVHISKSKVGWLIQLFHKKIESALRNKMNSQVCEKVTNSVSSELQPYFQTLPVMTKIDSVAGINYGLVAPPATTAETLDVQMKGEFYSENHHNPPPFAPPVMEFPAAHDRMVYLGLSDYFFNTAGLVYQEAGVLKMTLRDDMIPKESKFRLTTKFFGTFLPEVAKKFPNMKIQIHVSASTPPHLSVQPTGLTFYPAVDVQAFAVLPNSSLASLFLIGMHTTGSMEVSAESNRLVGELKLDRLLLELKHSNIGPFPVELLQDIMNYIVPILVLPRVNEKLQKGFPLPTPARVQLYNVVLQPHQNFLLFGADVVYK
toxicity to higher eukaryotic cells [1]: non-toxic | toxic effect on gram-positive organisms [2]: no toxic effect | toxic effect on fungi [3]: no toxic effect | concentration exhibiting anti-bacterial activity towards gram-negative bacteria (gram-negative bacteria): 10^−8 to 10^−9 M
